Where a chain is given by its changes, count along the chain named.
B1: SEQ ID NO: 22247: Herceptin mimotag tagged SAR (protein)
chain: MALPVTALLLPLALLLHAARPACPQLGPYELWELSHGTGAVVRGAEFDIQMTQSPSSLSASVGDRVTITCKASDHINNWLAWYQQKPGQAPKLLIYGATTLETGVPSRFSGSGSGTDYTLTISSLQPEDFATYYCQQSWNTPWTFGQGTKLEIKRLEDLKNVFPPEVAVFEPSKAEIAHTQKATLVCLATGFYPDHVELSWWVNGKEVHSGVCTDPQPLKEQPALNDSRYCLSSRLRVSATFWQNPRNHFRCQVQFYGLSENDEWTQDRAKPVTQIVSAEAWGRADCGITSASYHQGVLSATILYEILLGKATLYAVLVSALVLMAMVKRKDSRGRAKRSGSGATNFSLLKQAGDVEENPGPTSATMDWIWRILFLVGAATGAHSGPQVQLQESGGGLAQAGGSLRLSCAASGRTFSMGWFRQAPGKEREFVAAITYSGGSPYYASSVRGRFTISRDNAKNTVYLQMNSLKPEDTAVYYCAANPTYGSDWNAENWGQGTQVTVSSGSGGGGSGGGGSGGGGSFEQVQLQQPGAELVKPGASVKMSCKASGYAFSSYWINWMKQKPGQGLEWIGQIYPGDGDTNYNGKFKGRATLTADTSSSTAYMQLSSLTSEDSAVYFCARSITTVVGCAMDYWGQGTSVTVSSTRIQNPDPAVYQLRDSKSSDKSVCLFTDFDSQTNVSQSKDSDVYITDKCVLDMRSMDFKSNSAVAWSNKSDFACANAFNNSIIPEDTFFPSSDVPCDVKLVEKSFETDTNLNFQNLSVIGFRILLLKVAGFNLLMTLRLWSSRAKRSGSGVKQTLNFDLLKLAGDVESNPGPSRGHMTEYKPTVRLATRDDVPRAVRTLAAAFADYPATRHTVDPDRHIERVTELQELFLTRVGLDIGKVWVADDGAAVAVWTTPESVEAGAVFAEIGPRMAELSGSRLAAQQQMEGLLAPHRPKEPAWFLATVGVSPDHQGKGLGSAVVLPGVEAAERAGVPAFLETSAPRNLPFYERLGFTVTADVEVPEGPRTWCMTRKPGA
modifications: Herceptin mimotag
B2: SEQ ID NO: 22248: Herceptin mimotag tagged SAR (protein)
chain: MALPVTALLLPLALLLHAARPDIQMTQSPSSLSASVGDRVTITCKASDHINNWLAWYQQKPGQAPKLLIYGATTLETGVPSRFSGSGSGTDYTLTISSLQPEDFATYYCQQSWNTPWTFGQGTKLEIKRLEDLKNVFPPEVAVFEPSEAEISHTQKATLVCLATGFYPDHVELSWWVNGKEVHSGVCTDPQPLKEQPALNDSRYCLSSRLRVSATFWQNPRNHFRCQVQFYGLSENDEWTQDRAKPVTQIVSAEAWGRADCGFTSESYQQGVLSATILYEILLGKATLYAVLVSALVLMAMVKRKDSRGRAKRSGSGATNFSLLKQAGDVEENPGPTSATMDWIWRILFLVGAATGAHSGPQLGPYELWELSHGSGPLGIAGIFEQVQLQQPGAELVKPGASVKMSCKASGYAFSSYWINWMKQKPGQGLEWIGQIYPGDGDTNYNGKFKGRATLTADTSSSTAYMQLSSLTSEDSAVYFCARSITTVVGCAMDYWGQGTSVTVSSTRIQNPDPAVYQLRDSKSSDKSVCLFTDFDSQTNVSQSKDSDVYITDKCVLDMRSMDFKSNSAVAWSNKSDFACANAFNNSIIPEDTFFPSPESSCDVKLVEKSFETDTNLNFQNLSVIGFRILLLKVAGFNLLMTLRLWSSRAKRSGSGVKQTLNFDLLKLAGDVESNPGPSRGHMTEYKPTVRLATRDDVPRAVRTLAAAFADYPATRHTVDPDRHIERVTELQELFLTRVGLDIGKVWVADDGAAVAVWTTPESVEAGAVFAEIGPRMAELSGSRLAAQQQMEGLLAPHRPKEPAWFLATVGVSPDHQGKGLGSAVVLPGVEAAERAGVPAFLETSAPRNLPFYERLGFTVTADVEVPEGPRTWCMTRKPGA
modifications: Herceptin mimotag
B3: 21853 (protein)
chain: MALPVTALLLPLALLLHAARPSYVLTQPPSVSVAPGQTARITCGGNNIGGKSVHWYQQPPGQAPVVVVYDDSDRPSGIPERFSGSNSGNTATLTISRVEAGDEAVYYCQVWDSSSDHVVFGGGTKLTVLLEDLKNVFPPEVAVFEPSEAEISHTQKATLVCLATGFYPDHVELSWWVNGKEVHSGVCTDPQPLKEQPALNDSRYCLSSRLRVSATFWQNPRNHFRCQVQFYGLSENDEWTQDRAKPVTQIVSAEAWGRADCGFTSESYQQGVLSATILYEILLGKATLYAVLVSALVLMAMVKRKDSRGRAKRSGSGATNFSLLKQAGDVEENPGPTSMDWIWRILFLVGAATGAHSFEQLQLQESGPGLVKPSETLSLTCTVSGGSISSSSYFWGWIRQPPGKGLEWIGSIYYSGITYYNPSLKSRVTISVDTSKNQFSLKLSSVTAADTAVYYCARHDGAVAGLFDYWGQGTLVTVSSATRIQNPDPAVYQLRDSKSSDKSVCLFTDFDSQTNVSQSKDSDVYITDKCVLDMRSMDFKSNSAVAWSNKSDFACANAFNNSIIPEDTFFPSPESSCDVKLVEKSFETDTNLNFQNLSVIGFRILLLKVAGFNLLMTLRLWSS
B4: 21852 (protein)
chain: B3 chain with I48L, G50S, S391G, S423T
B5: 22144 (protein)
chain: MALPVTALLLPLALLLHAARPMLPAPKNLVVSRITEDSARLSWTAPDAAFDSFPIRYIETLIWGEAIWLDVPGSERSYDLTGLKPGTEYAVVITGVKGGRFSSPLVASFTTGTGGGGSGGGGSGGGGSEFDIQMTQSPSSLSASVGDRVTITCRASQDISNYLNWYQQKPGKAVKLLIYYTSILHSGVPSRFSGSGSGTDYTLTISSLQPEDFATYFCQQGNTLPWTFGGGTKVEIKLEDLKNVFPPEVAVFEPSEAEISHTQKATLVCLATGFYPDHVELSWWVNGKEVHSGVCTDPQPLKEQPALNDSRYCLSSRLRVSATFWQNPRNHFRCQVQFYGLSENDEWTQDRAKPVTQIVSAEAWGRADCGFTSESYQQGVLSATILYEILLGKATLYAVLVSALVLMAMVKRKDSRGRAKRSGSGATNFSLLKQAGDVEENPGPTSMDWIWRILFLVGAATGAHSFEVQLVESGGGLVKPGGSLKLSCAASGFAFSIYDMSWVRQAPGKGLEWVAYISSGGGTTYYPDTVKGRFTISRDNAKNTLYLQMSSLRAEDTAMYYCARHSGYGSSYGVLFAYWGQGTLVTVSSTRIQNPDPAVYQLRDSKSSDKSVCLFTDFDSQTNVSQSKDSDVYITDKCVLDMRSMDFKSNSAVAWSNKSDFACANAFNNSIIPEDTFFPSPESSCDVKLVEKSFETDTNLNFQNLSVIGFRILLLKVAGFNLLMTLRLWSSRAKRSGSGVKQTLNFDLLKLAGDVESNPGPSRGHMTEYKPTVRLATRDDVPRAVRTLAAAFADYPATRHTVDPDRHIERVTELQELFLTRVGLDIGKVWVADDGAAVAVWTTPESVEAGAVFAEIGPRMAELSGSRLAAQQQMEGLLAPHRPKEPAWFLATVGVSPDHQGKGLGSAVVLPGVEAAERAGVPAFLETSAPRNLPFYERLGFTVTADVEVPEGPRTWCMTRKPGA

Assays:
[1] = test system: JNG cells expressing the constructs
L363-Luc cells = experiment: L363 xenograft in NSG mice; settings: for disease control, L363 xenograft: 0.5 × 10^6 L363-Luc i.v., 3 days later 2 × 10^6 SAR-T i.v., compared to control T cells; for survival, L363 xenograft: mouse, in vivo, iv
THP-1 cells = experiment: JNG NFAT-GFP induction on co-culture with THP-1
[2] = JNG NFAT-GFP background GFP induction (tonic signaling)
RAJI cells = experiment: JNG assay, co-culture with RAJI cells; assay type: cell-based; settings: JNG cells expressing construct, co-culture with Raji
In short: (§1)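 Jurkat-NFAT-GFP (JNG) cells stably expressing SAR constructs via lentiviral transduction and puromycin/blasticidin selection were cocultured with target cells at E:T ~1:2 for ~4–18 h. NFAT-driven GFP was measured by FACS versus parental JNG cells; scores +/- to 5+ denote ~5–50% GFP-positive cells.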

L363 cells = experiment: JNG assay, co-culture with L363 cells; assay type: cell-based; settings: co-culture with L363
In short: as §1

Nalm6 cells = experiment: JNG assay, co-culture with Nalm6 cells; assay type: cell-based; settings: co-culture with Nalm6
In short: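 GFP expression induced through the NFAT pathway was monitored by FACS once SAR-bearing Jurkat reporters had been cultured with target cells at an approximate 1:2 ratio for 4 to 18 hours; parental reporter cells served as the baseline.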

U266 cells = experiment: JNG NFAT-GFP induction on co-culture with U266; assay type: cell-based
Raji-CD22-KO = experiment: JNG NFAT-GFP assay, co-culture with Raji-CD22-KO cells; assay type: cell-based

Molecule | cytotoxicity when exposed to antibody [1] | disease control, L363 xenograft (L363-Luc cells) | survival, L363 xenograft (L363-Luc cells) | GFP induction upon co-culture with THP-1 (THP-1 cells) | background GFP induction (tonic signaling) [2] | further results
B1 | showed cytotoxicity | – | – | – | – | –
B2 | showed cytotoxicity | – | – | – | – | –
B3 | – | superior disease control | prolongation of survival | no GFP induction | no background GFP induction | –
B4 | – | superior disease control | prolongation of survival | no GFP induction | no background GFP induction | –
B5 | – | – | – | – | – | NFAT-GFP ASSAY: Raji (RAJI cells): + (refer to approximately 5%, 10%, 20%, 30%, 40% and 50% GFP positive cells); NFAT-GFP ASSAY: L363 (L363 cells): + (refer to approximately 5%, 10%, 20%, 30%, 40% and 50% GFP positive cells); NFAT-GFP ASSAY: Nalm6 (Nalm6 cells): +/- (refer to approximately 5%, 10%, 20%, 30%, 40% and 50% GFP positive cells); NFAT-GFP ASSAY: U266 (U266 cells): 3+ (refer to approximately 5%, 10%, 20%, 30%, 40% and 50% GFP positive cells); NFAT-GFP ASSAY: Raji-CD22-KO (Raji-CD22-KO): +/- (refer to approximately 5%, 10%, 20%, 30%, 40% and 50% GFP positive cells)

From US20230212319A1, “NOVEL ANTIGEN BINDING DOMAINS AND SYNTHETIC ANTIGEN RECEPTORS INCORPORATING THE SAME” (University of Southern California, priority 2020, published 2023)
